Three molecules from patent publication US20260224661A1 (Stanford University, published 2026) can be followed below.

Assay [1] addresses Tenm1 (as used in the affinity determinations of FIG. 2E-F) (UniProt Q9UKZ4 1-2725). Kind of assay: surface binding saturation curve.
The target in assay [2] is T1, Tenm4 expressed in HEK293 cells (mouse, UniProt Q3UHK6 1-2771).
T1 construct: also called teneurin-4
Kind of assay: surface-binding assay on HEK293 cells expressing Tenm4 (FIG. 4E).

For assay [3], the target named is T2, Tenm1 expressed in HEK293 cells (human, UniProt Q9UKZ4 1-2725).
T2 construct: also called teneurin-1
T2 sequence (Q9UKZ4 other isoform, or with tags, fused parts or gaps): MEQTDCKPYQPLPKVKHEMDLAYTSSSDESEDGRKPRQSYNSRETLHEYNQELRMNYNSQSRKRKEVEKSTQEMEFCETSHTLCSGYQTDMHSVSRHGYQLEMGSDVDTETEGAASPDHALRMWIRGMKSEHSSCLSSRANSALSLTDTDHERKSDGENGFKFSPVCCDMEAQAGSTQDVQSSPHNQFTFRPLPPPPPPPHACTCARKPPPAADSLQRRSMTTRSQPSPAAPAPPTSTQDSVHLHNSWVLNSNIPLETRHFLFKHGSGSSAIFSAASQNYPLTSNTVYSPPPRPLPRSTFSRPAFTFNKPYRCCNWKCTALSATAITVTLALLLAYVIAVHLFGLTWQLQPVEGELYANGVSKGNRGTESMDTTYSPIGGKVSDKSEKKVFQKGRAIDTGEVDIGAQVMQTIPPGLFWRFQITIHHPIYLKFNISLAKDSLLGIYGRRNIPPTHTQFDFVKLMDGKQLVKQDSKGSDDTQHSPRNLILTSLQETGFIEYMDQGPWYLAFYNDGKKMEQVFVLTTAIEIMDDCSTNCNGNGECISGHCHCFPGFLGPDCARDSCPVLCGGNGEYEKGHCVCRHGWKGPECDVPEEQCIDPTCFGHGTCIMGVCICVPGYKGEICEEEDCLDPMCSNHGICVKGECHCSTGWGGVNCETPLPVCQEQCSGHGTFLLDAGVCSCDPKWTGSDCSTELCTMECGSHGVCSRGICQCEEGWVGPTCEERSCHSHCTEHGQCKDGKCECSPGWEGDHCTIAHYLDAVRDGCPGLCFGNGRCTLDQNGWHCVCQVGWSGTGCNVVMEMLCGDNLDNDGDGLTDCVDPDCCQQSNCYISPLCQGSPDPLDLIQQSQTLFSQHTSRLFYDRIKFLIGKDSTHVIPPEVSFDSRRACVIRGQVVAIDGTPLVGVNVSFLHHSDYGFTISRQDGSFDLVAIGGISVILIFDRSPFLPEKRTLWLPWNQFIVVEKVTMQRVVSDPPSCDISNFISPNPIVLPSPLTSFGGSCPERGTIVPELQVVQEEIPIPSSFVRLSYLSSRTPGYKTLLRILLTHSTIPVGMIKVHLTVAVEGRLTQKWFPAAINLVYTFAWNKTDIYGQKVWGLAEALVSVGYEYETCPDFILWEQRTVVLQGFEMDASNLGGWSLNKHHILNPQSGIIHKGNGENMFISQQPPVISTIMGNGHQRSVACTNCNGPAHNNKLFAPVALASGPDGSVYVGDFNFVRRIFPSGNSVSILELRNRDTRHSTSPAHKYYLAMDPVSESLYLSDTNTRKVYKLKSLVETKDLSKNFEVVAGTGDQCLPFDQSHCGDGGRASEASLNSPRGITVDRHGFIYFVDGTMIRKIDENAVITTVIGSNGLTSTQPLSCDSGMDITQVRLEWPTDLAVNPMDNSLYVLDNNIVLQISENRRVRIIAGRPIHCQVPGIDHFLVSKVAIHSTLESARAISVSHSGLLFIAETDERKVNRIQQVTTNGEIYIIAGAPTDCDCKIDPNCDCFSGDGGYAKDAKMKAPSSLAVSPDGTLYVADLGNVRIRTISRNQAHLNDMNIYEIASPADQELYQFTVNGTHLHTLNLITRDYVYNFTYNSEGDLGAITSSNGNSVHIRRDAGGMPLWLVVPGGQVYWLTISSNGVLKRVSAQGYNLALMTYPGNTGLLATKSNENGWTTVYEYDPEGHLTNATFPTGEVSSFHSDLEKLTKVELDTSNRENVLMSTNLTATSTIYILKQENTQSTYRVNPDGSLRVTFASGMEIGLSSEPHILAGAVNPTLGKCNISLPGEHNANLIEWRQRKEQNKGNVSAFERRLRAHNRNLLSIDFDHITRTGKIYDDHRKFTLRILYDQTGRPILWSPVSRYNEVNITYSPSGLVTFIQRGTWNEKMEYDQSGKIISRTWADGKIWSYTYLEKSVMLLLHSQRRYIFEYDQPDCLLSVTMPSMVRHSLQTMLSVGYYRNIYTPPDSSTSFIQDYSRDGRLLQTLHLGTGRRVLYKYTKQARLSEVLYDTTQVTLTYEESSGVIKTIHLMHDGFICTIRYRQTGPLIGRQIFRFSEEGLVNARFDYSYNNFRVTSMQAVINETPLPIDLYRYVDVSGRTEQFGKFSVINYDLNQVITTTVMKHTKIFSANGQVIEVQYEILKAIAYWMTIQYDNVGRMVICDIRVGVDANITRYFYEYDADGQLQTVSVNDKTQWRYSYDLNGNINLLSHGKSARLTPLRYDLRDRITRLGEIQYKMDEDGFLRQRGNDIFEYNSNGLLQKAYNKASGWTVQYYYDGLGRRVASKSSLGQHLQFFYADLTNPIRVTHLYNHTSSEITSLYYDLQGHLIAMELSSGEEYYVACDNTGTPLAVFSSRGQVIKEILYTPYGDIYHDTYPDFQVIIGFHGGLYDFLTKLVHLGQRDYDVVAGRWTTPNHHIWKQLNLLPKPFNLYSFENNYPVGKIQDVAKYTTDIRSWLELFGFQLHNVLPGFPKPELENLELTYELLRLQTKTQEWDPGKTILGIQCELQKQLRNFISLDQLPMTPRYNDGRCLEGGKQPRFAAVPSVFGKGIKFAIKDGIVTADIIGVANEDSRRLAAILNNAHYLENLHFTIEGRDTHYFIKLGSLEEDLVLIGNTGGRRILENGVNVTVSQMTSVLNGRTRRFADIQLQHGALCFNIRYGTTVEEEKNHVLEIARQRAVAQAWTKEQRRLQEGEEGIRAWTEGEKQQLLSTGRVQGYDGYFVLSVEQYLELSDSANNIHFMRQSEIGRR
Kind of assay: surface-binding assay on HEK293 cells expressing Tenm1 (FIG. 4E).

Assay [4] addresses T3, Tenm2 expressed in HEK293 cells (human, UniProt Q9NT68 1-2774).
T3 construct: also called teneurin-2
Kind of assay: surface-binding assay on HEK293 cells expressing Tenm2 (FIG. 4E).

The target of assay [5] is T4, Tenm3 expressed in HEK293 cells (mouse, UniProt Q9WTS6 1-2715).
T4 construct: also called teneurin-3
Nature of the assay: surface-binding assay on HEK293 cells expressing Tenm3 (FIG. 4E).

Chain of Tenm1 (as used in the affinity determinations of FIG. 2E-F) (Q9UKZ4 other isoform, or with tags, fused parts or gaps): as above

B1: full-length SPARCL1 (ligand)
chain: IPTSTRFLSDHSNPTTATLVTPEDATVPIAGVEATADIENHPNDKAEKPSALNSEEETHEQSTEQDKTYSFEVDLKDEEDGDGDLSVDPTEGTLTLDLQEGTSEPQQKSLPENGDFPATVSTSYVDPNQRANITKGKESQEQPVSDSHQQPNESSKQTQDLKAEESQTQDPDIPNEEEEEEEDEEEEEEEEPEDIGAPSDNQEEGKEPLEEQPTSKWEGNREQSDDTLEESSQPTQISKTEKHQSEQGNQGQESDSEAEGEDKAAGSKEHIPHTEQQDQEGKAGLEAIGNQKDTDEKAVSTEPTDAAVVPRSHGGAGDNGGGDDSKHGAGDDYFIPSQEFLEAERMHSLSYYLKYGGGEETTTGESENRREAADNQEAKKAESSPNAEPSDEGNSREHSAGSCTNFQCKRGHICKTDPQGKPHCVCQDPETCPPAKILDQACGTDNQTYASSCHLFATKCRLEGTKKGHQLQLDYFGACKSIPACTDFEVAQFPLRMRDWLKNILMQLYEPNPKHGGYLNEKQRSKVKKIYLDEKRLLAGDHPIELLLRDFKKNYHMYVYPVHWQFNELDQHPADRILTHSELAPLRASLVPMEHCITRFFEECDPNKDKHITLKEWGHCFGIKEEDIDENLLF
In assay [1], B1 came in with a Kd of 73.2 nM.

B2: C-terminal SPARCL1-C domain of SPARCL1 (ligand)
chain: PNAEPSDEGNSREHSAGSCTNFQCKRGHICKTDPQGKPHCVCQDPETCPPAKILDQACGTDNQTYASSCHLFATKCRLEGTKKGHQLQLDYFGACKSIPACTDFEVAQFPLRMRDWLKNILMQLYEPNPKHGGYLNEKQRSKVKKIYLDEKRLLAGDHPIELLLRDFKKNYHMYVYPVHWQFNELDQHPADRILTHSELAPLRASLVPMEHCITRFFEECDPNKDKHITLKEWGHCFGIKEEDIDENLLF
As for B2, in assay [1], binding was put at a Kd of 88.2 nM.

B3: EF-hand Ca2+-binding domain of SPARCL1 (ligand)
chain: ACTDFEVAQFPLRMRDWLKNILMQLYEPNPKHGGYLNEKQRSKVKKIYLDEKRLLAGDHPIELLLRDFKKNYHMYVYPVHWQFNELDQHPADRILTHSELAPLRASLVPMEHCITRFFEECDPNKDKHITLKEWGHCFGIKEEDIDENLLF
notes: also called EF-hand domain; EC domain
As for B3, the binding result in assay [2], in assay [3], in assay [4] and in assay [5] was “no binding” in each case.
